Assay results published in patent publication US20180022816A1 (Genmab, published 2018).

Legend:
Experiment in all cases: cell-based or functional assay
[1] = molecular target: T1, human epidermal growth factor receptor 2 (HER2), membrane-bound on tumor cells (AU565, A431, SK-BR-3) (human, UniProt P04626 23-1255)
[2] = molecular target: T1, human epidermal growth factor receptor …; remark: listed apart in the source
[3] = molecular target: T1, human epidermal growth factor receptor …; remark: listed apart in the source

Row | Binder | % cells killed, AU565 cells, anti-kappa-ETA′-conjugated antibody [1] [%] | EC50 of killing, AU565 cells, anti-kappa-ETA′-conjugated antibody [1] [µg/mL] | EC50, fab-CypHer5E internalization assay, AU565 cells [2] [µg/mL] | Maximal MFI, fab-CypHer5E internalization assay, AU565 cells [2] [MFI] | EC50 of killing, A431 cells, anti-kappa-ETA′-conjugated antibody [3] [µg/mL]
1 | HuMab 111 (antibody, V domains shown) VH: QVQLVQSGAEVKKPGSSVKVSCKASGGTFSSYGISWVRQAPGPGLEWMGRIIPILGIANYAQKFQGRVTITADKSTNTAYMELSSLRSEDTAVYYCARDQEYSSNWYYWGQGTLVTVSS VL: not shown | 72 | 0.0242 | 0.0352 | 81700 | –
2 | HuMab 005 (antibody, human IgG1, V domains shown) VH: EVQLVQSGAEVKKPGESLKISCKASGYSFHFYWIGWVRQMPGKGLEWMGSIYPGDSDTRYRPSFQGQVTISADKSISTAYLQWTSLKASDTAIYYCARQRGDYYYFYGMDVWGQGTTVTVSS VL: not shown | 69.7 | 0.0151 | 0.0214 | 95100 | ~0.0101
3 | HuMab 059 (antibody, V domains shown) VH: QVQLVQSGAEVKKPGASVRVPCKASGYTFTRYGISWVRQAPGQGLEWMGWISAYNGKTYYAQKLQGRVTMTTDTSTSTAYMELRSLRSDDTAVYYCARSPLLWFEELYFDYWGQGTLVTVSS VL: EIVLTQSPGTLSLSPGERATLSCRASQSVSSTYLAWYQQKPGQAPRLLIYGASSRATGIPDRFSGSGSGTDFTLTISRLEPEDFAVYYCQQYGTSLFTFGPGTKVDIK | 67 | 0.0677 | 0.0148 | 77100 | –
4 | HuMab 060 (antibody, V domains shown) VH: EVQLVQSGAEVKKPGESLKISCKGSGYRFTSYWIGWVRQMPGKGLEWMGSIYPGDSYTRNSPSFQGQVTISADKSIATAYLQWNSLKASDTAMYYCARHAGDFYYFDGLDVWGQGTTVTVSS VL: not shown | 64.3 | 0.0794 | 0.0362 | 68200 | ~0.01
5 | HuMab 106 (antibody, V domains shown) VH: EVQLVQSGAEVKKPGESLKISCKGSGYSFTRYWIGWVRQMPGKGLEWMGIIYPGDSDTRYSPSFQGQVTISADKSISTAYLQWSSLKASDTAMYYCARLTGDRGFDYYSGMDVWGQGTTVTVSS VL: not shown | 59.1 | 0.108 | 0.0686 | 57400 | –
